Measured values: IntAct's records for PubMed 10523676

B1: DNA polymerase alpha catalytic subunit (Mus musculus), P33609 (parent)
chain: MAPMHEEDCKLEASAVSDSGSFAASRARREKKSKKGRQEALERLKKAKAGEKYKYEVEDLTSVYEEVDEEQYSKLVQARQDDDWIVDDDGIGYVEDGREIFDDDLEDDALDTCGKGSDGKAHRKDRKDVKKPSVTKPNNIKAMFIASAGKKTTDKAVDLSKDDLLGDILQDLNTETAQITPPPVLIPKKKRSTGALLNPFSVHTPKAIPSGKPASPVLRNEPLLTPIPLKRAELAGELAQPECPEDEQELGVMEFEDGDFDESMDTEKVDEKPVTAKTWDQETEPVERVEHEADPERGTTSYLENFLPDVSCWDIDQDDESIPQEVQVDSSNLPLVKGADDEQVFQFYWLDAYEDPYNQPGVVFLFGKVWIESVKTHVSCCVMVKNIERTLYFLPREMKFDLNTGKETAIPVTMKDVYEEFDSKISAKYKIMKFKSKIVEKNYAFEIPDVPEKSEYLEVRYSAEVPQLPQNLKGETFSHVFGTNTSSLELFLMNRKIKGPCWLEVKNPQLLNQPISWCKFEVMALKPDLVNVIKDVSPPPLVVMSFSMKTMQNVQNHQHEIIAMAALVHHSFALDKAPPEPPFQTHFCVVSKPKDCIFPCDFKEVISKKNMKVEIAATERTLIGFFLAKVHKIDPDILVGHNICSFELEVLLQRINECKVPYWSKIGRLRRSNMPKLGSRSGFGERNATCGRMICDVEISAKELIHCKSYHLSELVQQILKTERIVIPTENIRNMYSESSYLLYLLEHIWKDARFILQIMCELNVLPLALQITNIAGNIMSRTLMGGRSERNEFLLLHAFYENNYIVPDKQIFRKPQQKLGDEDEEIDGDTNKYKKGRKKATYAGGLVLDPKVGFYDKFILLLDFNSLYPSIIQEFNICFTTVQRVTSEVQKATEDEEQEQIPELPDPNLEMGILPREIRKLVERRKQVKQLMKQQDLNPDLVLQYDIRQKALKLTANSMYGCLGFSYSRFYAKPLAALVTYKGREILMHTKDMVQKMNLEVIYGDTDSIMINTNSTNLEEVFKLGNKVKSEVNKLYKLLEIDIDAVFKSLLLLKKKKYAALVVEPTSDGNYITKQELKGLDIVRRDWCDLAKDTGNFVIGQILSDQSRDTIVENIQKRLIEIGENVLNGSVPVSQFEINKALTKDPQDYPDRKSLPHVHVALWINSQGGRKVKAGDTVSYVICQDGSNLTATQRAYAPEQLQKLDNLAIDTQYYLAQQIHPVVARICEPIDGIDAVLIALWLGLDSTQFRVHQYHKDEENDALLGGPAQLTDEEKYKDCEKFKCLCPSCGTENIYDNVFEGSGLDMEPSLYRCSNVDCKVSPLTFMVQLSNKLIMDIRRCIKKYYDGWLICEEPTCCSRLRRLPLHFSRNGPLCPVCMKAVLRPEYSDKSLYTQLCFYRYIFDADCALEKLTEHEKDKLKKQFFPLRVLQDYRKVKNIAEQFLSWSGYSEVNLSKLFANYAGKS
partner: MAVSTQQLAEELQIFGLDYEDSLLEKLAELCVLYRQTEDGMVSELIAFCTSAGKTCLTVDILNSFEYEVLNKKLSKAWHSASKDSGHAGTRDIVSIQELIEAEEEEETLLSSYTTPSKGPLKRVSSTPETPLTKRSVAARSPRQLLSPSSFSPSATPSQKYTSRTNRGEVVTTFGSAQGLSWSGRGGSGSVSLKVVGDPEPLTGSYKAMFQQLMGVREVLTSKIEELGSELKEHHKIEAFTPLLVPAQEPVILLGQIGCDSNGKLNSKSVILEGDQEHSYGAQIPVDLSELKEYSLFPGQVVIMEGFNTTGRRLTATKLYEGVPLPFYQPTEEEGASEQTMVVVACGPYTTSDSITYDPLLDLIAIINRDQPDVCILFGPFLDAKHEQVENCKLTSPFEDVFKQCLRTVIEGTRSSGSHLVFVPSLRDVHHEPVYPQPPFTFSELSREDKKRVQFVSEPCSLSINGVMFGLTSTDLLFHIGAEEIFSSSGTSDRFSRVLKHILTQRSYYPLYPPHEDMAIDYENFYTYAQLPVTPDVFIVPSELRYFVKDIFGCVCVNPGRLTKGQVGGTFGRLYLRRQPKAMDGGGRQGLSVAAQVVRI

Variants of: B1
Conditions: with dpoa2_mouse Pola2, P33611

Row | Variant | effect of a mutation on the interaction
1 | C1287A;C1290A | decreasing interaction
2 | C1375A;C1378A | decreasing interaction
